Laboratory results taken from PMC9482650, “Quantitative fragmentomics allow affinity mapping of interactomes” (Nature Communications, 2022).

Experiments:
Experiment in all cases: holdup assay
Design in all cases: key: below the threshold = too weak to quantify, mostly under pKd 3.1 to 4
SHROOM3, Q8TF72 = biological target: T1, SHROOM3, Q8TF72
T1 sequence (Q8TF72 20-120, limits assumed, looked up): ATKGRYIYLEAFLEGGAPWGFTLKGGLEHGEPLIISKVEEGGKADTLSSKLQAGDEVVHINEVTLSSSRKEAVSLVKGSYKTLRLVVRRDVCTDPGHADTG

MPDZ_3, O75970 = biological target: T2, MPDZ_3, O75970
T2 sequence (O75970 372-473, limits assumed, looked up): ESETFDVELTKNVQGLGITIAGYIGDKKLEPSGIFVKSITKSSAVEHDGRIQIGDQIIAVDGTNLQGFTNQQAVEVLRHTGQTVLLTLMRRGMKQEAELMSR

MPP1, Q00013 = biological target: T3, MPP1, Q00013
T3 sequence (Q00013 66-162, limits assumed, looked up): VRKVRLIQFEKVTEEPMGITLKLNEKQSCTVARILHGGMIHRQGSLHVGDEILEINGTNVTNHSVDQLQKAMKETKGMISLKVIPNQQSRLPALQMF

MPDZ_11, O75970 = biological target: T4, MPDZ_11, O75970
T4 sequence (O75970 1720-1817, limits assumed, looked up): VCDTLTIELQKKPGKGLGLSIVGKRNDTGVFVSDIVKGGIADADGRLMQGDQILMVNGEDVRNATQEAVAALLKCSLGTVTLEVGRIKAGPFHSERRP

MAGI1_6, Q96QZ7 = biological target: MAGI1_6, Q96QZ7
Sequence of MAGI1_6, Q96QZ7 (Q96QZ7 1146-1238): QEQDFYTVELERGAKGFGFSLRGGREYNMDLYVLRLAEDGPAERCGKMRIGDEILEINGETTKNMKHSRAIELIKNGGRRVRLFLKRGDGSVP

NHERF4_3, Q86UT5 = biological target: NHERF4_3, Q86UT5
Sequence of NHERF4_3, Q86UT5 (Q86UT5 325-412): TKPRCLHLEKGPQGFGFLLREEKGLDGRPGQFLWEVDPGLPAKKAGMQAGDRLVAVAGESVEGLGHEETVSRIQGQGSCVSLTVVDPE

SDCBP_1, O00560 = biological target: SDCBP_1, O00560
Sequence of SDCBP_1, O00560 (O00560 111-198): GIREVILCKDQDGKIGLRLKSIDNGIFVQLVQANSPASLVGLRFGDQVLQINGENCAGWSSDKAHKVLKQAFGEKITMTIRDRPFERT

PDZD2_1, O15018 = biological target: T5, PDZD2_1, O15018
T5 sequence (O15018 80-192, limits assumed, looked up): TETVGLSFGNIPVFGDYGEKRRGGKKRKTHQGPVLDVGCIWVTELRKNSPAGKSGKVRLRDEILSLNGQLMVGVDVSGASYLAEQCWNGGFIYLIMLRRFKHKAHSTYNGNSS

MAGI1_3, Q96QZ7 = biological target: MAGI1_3, Q96QZ7
Sequence of MAGI1_3, Q96QZ7 (Q96QZ7 638-725): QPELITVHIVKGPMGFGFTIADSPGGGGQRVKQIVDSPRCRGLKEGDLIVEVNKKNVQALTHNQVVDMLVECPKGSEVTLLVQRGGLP

TJP1_1, Q07157 = biological target: TJP1_1, Q07157
Sequence of TJP1_1, Q07157 (Q07157 18-120): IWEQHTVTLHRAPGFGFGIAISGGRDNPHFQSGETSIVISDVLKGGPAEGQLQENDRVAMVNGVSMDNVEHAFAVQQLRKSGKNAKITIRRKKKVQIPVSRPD

PTPN13_4, Q12923 = biological target: T6, PTPN13_4, Q12923
T6 sequence (Q12923 1783-1878, limits assumed, looked up): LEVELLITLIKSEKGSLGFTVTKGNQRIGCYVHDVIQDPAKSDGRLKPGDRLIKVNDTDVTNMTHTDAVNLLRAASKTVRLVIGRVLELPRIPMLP

AHNAK2, Q8IVF2 = biological target: AHNAK2, Q8IVF2
Sequence of AHNAK2, Q8IVF2 (Q8IVF2 108-193): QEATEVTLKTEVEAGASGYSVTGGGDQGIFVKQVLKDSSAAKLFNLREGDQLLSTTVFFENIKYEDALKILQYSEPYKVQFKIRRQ

MPDZ_6, O75970 = biological target: T7, MPDZ_6, O75970
T7 sequence (O75970 1003-1099, limits assumed, looked up): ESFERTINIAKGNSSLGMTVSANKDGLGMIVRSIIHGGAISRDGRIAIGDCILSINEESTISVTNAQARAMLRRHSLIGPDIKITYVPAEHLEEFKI

PDZD2_6, O15018 = biological target: T8, PDZD2_6, O15018
T8 sequence (O15018 2745-2839, limits assumed, looked up): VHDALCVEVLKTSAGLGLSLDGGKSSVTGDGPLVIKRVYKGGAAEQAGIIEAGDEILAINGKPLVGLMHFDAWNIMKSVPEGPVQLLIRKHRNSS

DVL1, O14640 = biological target: T9, DVL1, O14640
T9 sequence (O14640 246-333, limits assumed, looked up): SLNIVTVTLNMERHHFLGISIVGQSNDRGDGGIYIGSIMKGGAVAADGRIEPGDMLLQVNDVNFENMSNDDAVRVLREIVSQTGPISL

DLG2_1, Q15700 = biological target: DLG2_1, Q15700
PDZRN3_2, Q9UPQ7 = biological target: T10, PDZRN3_2, Q9UPQ7
T10 sequence (Q9UPQ7 414-513, limits assumed, looked up): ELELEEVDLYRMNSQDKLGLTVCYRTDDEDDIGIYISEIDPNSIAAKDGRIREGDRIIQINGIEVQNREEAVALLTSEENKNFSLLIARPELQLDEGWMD

SHANK2, Q9UPX8 = biological target: T11, SHANK2, Q9UPX8
T11 sequence (Q9UPX8 621-730, limits assumed, looked up): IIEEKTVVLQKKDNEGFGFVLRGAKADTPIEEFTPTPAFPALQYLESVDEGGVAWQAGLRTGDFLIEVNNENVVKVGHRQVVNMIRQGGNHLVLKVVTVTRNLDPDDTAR

TJP3_2, O95049 = biological target: T12, TJP3_2, O95049
T12 sequence (O95049 190-282, limits assumed, looked up): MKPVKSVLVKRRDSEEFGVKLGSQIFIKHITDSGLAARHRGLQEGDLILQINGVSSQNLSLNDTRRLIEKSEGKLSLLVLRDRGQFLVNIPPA

MAGI2_1, Q86UL8 = biological target: T13, MAGI2_1, Q86UL8
T13 sequence (Q86UL8 12-111, limits assumed, looked up): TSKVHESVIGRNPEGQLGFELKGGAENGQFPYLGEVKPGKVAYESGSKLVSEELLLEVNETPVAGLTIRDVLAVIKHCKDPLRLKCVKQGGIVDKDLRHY

PARD6G, Q9BYG4 = biological target: T14, PARD6G, Q9BYG4
T14 sequence (Q9BYG4 153-261, limits assumed, looked up): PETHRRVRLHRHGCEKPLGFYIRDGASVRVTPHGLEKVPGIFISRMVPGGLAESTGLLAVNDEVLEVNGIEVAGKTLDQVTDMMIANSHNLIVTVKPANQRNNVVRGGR

PTPN4, P29074 = biological target: T15, PTPN4, P29074
T15 sequence (P29074 512-599, limits assumed, looked up): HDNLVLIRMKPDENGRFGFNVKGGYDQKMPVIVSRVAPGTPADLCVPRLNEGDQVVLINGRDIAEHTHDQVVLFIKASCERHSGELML

[1] = modified: phospho on S at position -3 from the C-terminal residue
[2] = plain residues with an end cap or a label only (N-terminal biotin on a linker: (peg)3)
[3] = modified: acetyl on K at position -1 from the C-terminal residue

Binder: RRVRKLPSTTL [RPS6KA1_-3P, Q15418]
- pKd (SHROOM3, Q8TF72; [1]): below the threshold
- pKd (MPDZ_3, O75970; [1]): below the threshold
- pKd (MPP1, Q00013; [1]): below the threshold
- pKd (MPDZ_11, O75970; [1]): below the threshold
- pKd (MAGI1_6, Q96QZ7; [1]): below the threshold
- pKd (NHERF4_3, Q86UT5; [1]): below the threshold
- pKd (SDCBP_1, O00560; [1]): below the threshold
- pKd (PDZD2_1, O15018; [1]): below the threshold
- pKd (MAGI1_3, Q96QZ7; [1]): below the threshold
- pKd (TJP1_1, Q07157; [1]): below the threshold
- pKd (PTPN13_4, Q12923; [1]): below the threshold
- pKd (AHNAK2, Q8IVF2; [1]): 3.54
- pKd (MPDZ_6, O75970; [1]): below the threshold
- pKd (PDZD2_6, O15018; [1]): below the threshold
- pKd (DVL1, O14640; [1]): below the threshold
- pKd (DLG2_1, Q15700; [1]): 3.69
- pKd (PDZRN3_2, Q9UPQ7; [1]): 3.72
- pKd (SHANK2, Q9UPX8; [1]): below the threshold
- pKd (TJP3_2, O95049; [1]): below the threshold
- pKd (MAGI2_1, Q86UL8; [1]): below the threshold
- pKd (PARD6G, Q9BYG4; [1]): below the threshold
- pKd (PTPN4, P29074; [1]): 3.54

Binder: YDEPTTTTSVPL [SARS-Cov2-3a, P0DTC3]
- pKd (SHROOM3, Q8TF72; [2]): below the threshold
- pKd (MPDZ_3, O75970; [2]): below the threshold
- pKd (MPP1, Q00013; [2]): below the threshold
- pKd (MPDZ_11, O75970; [2]): below the threshold
- pKd (MAGI1_6, Q96QZ7; [2]): below the threshold
- pKd (NHERF4_3, Q86UT5; [2]): below the threshold
- pKd (SDCBP_1, O00560; [2]): below the threshold
- pKd (PDZD2_1, O15018; [2]): below the threshold
- pKd (MAGI1_3, Q96QZ7; [2]): below the threshold
- pKd (TJP1_1, Q07157; [2]): below the threshold
- pKd (PTPN13_4, Q12923; [2]): below the threshold
- pKd (AHNAK2, Q8IVF2; [2]): below the threshold
- pKd (MPDZ_6, O75970; [2]): below the threshold
- pKd (PDZD2_6, O15018; [2]): below the threshold
- pKd (DVL1, O14640; [2]): below the threshold
- pKd (DLG2_1, Q15700; [2]): below the threshold
- pKd (PDZRN3_2, Q9UPQ7; [2]): below the threshold
- pKd (SHANK2, Q9UPX8; [2]): below the threshold
- pKd (TJP3_2, O95049; [2]): below the threshold
- pKd (MAGI2_1, Q86UL8; [2]): below the threshold
- pKd (PARD6G, Q9BYG4; [2]): below the threshold
- pKd (PTPN4, P29074; [2]): below the threshold

Binder: DEDQHTQITKV [PTEN_Ac, P60484]
- pKd (SHROOM3, Q8TF72; [3]): below the threshold
- pKd (MPDZ_3, O75970; [3]): below the threshold
- pKd (MPP1, Q00013; [3]): below the threshold
- pKd (MPDZ_11, O75970; [3]): 3.78
- pKd (MAGI1_6, Q96QZ7; [3]): below the threshold
- pKd (NHERF4_3, Q86UT5; [3]): below the threshold
- pKd (SDCBP_1, O00560; [3]): below the threshold
- pKd (PDZD2_1, O15018; [3]): below the threshold
- pKd (MAGI1_3, Q96QZ7; [3]): 4.98
- pKd (TJP1_1, Q07157; [3]): 3.94
- pKd (PTPN13_4, Q12923; [3]): 4.96
- pKd (AHNAK2, Q8IVF2; [3]): below the threshold
- pKd (MPDZ_6, O75970; [3]): below the threshold
- pKd (PDZD2_6, O15018; [3]): below the threshold
- pKd (DVL1, O14640; [3]): below the threshold
- pKd (DLG2_1, Q15700; [3]): 3.98
- pKd (PDZRN3_2, Q9UPQ7; [3]): below the threshold
- pKd (SHANK2, Q9UPX8; [3]): 3.97
- pKd (TJP3_2, O95049; [3]): below the threshold
- pKd (MAGI2_1, Q86UL8; [3]): below the threshold
- pKd (PARD6G, Q9BYG4; [3]): below the threshold
- pKd (PTPN4, P29074; [3]): below the threshold
